Here are results for 3 molecules from US20240343803A1 (SHANDONG SIMCERE BIOPHARMACEUTICAL, published 2024).

The target of assay [1] is T1, Fusion protein of extracellular domain of human TIGIT and His-tag (human TIGIT ECD-his) (human).
T1 chain: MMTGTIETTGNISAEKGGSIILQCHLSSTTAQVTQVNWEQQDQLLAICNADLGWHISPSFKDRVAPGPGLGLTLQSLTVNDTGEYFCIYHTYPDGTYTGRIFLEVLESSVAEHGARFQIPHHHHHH
Put plainly: BIAcore; KD ratio to TIGIT-CHI-002.

Assay [2] addresses T2, cynomolgus monkey PVRIG on FlpinCHO-cyno PVRIG cells (cynomolgus monkey, UniProt A0A2K5WVV8 41-322).
T2 construct: whole, on cells; also called FlpinCHO-cynomolgus monkey PVRIG
T2 sequence: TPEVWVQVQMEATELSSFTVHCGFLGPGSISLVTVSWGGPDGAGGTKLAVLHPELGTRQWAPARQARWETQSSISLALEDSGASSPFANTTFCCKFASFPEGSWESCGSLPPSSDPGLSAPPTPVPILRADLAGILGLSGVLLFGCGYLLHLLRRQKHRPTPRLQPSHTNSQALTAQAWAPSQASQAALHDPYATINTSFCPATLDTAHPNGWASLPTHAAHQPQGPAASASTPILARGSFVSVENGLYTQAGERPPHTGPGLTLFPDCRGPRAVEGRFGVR
The assay is described as follows: FACS, FlpinCHO-cyno PVRIG cells. The protocol: After discarding the cell culture medium, the cells were rinsed with PBS and digested for 8-10 minutes by adding 1 mL Versene (Gibico, 15040-066). The Ham's F12 (Gibico, 21127-022) complete medium containing 10% FBS was then added to terminate the digestion and acquire cell suspension. After counting with a cell counter (Beckman Coulter, Vi-CELL), an appropriate amount of cell suspension was centrifuged at 350×g to remove the supernatant, washed twice with PBS, stained with Zombie violet (Biolegend, 423114) and incubated at room temperature for 20 minutes. After incubation, the cells were added with staining buffer (2% FBS+PBS) to stop staining, centrifuged at 350×g to remove the supernatant, washed twice and resuspended with staining buffer to a density of 2×10⁶ cells/mL. The cells were plated into a 96-well plate (50 μL of cell suspension per well) for further use. The antibodies were diluted from the highest concentration of 46 nM (two-fold concentration) with staining buffer by 3.3-fold serial dilution. The diluted antibodies were added to the well containing 50 μL of cell suspension. The plate was placed on a microplate shaker at 400 rpm for 1 minute to fully mix the antibodies and cells, and then incubated at 4° C. for 30 minutes. After the incubation, the cells were washed twice with staining buffer (200 μL per well) and centrifuged at 350×g for 5 minutes to discard the supernatant. The PE goat anti-human IgG Fc antibody (ebioscience, 12-4998-82) was diluted 250 times with staining buffer, added into the washed wells (100 μL per well), mixed well, and stained at 4° C. for 30 minutes. After staining, the cells were washed twice with staining buffer, finally resuspended with 200 μL staining buffer and analyzed by flow cytometry (BD, Canto II). […] An antibody binding curve was drawn with concentration of antibodies as the abscissa and the corresponding Mean Fluorescence Intensity (MFI) as the ordinate. The AUC value of the curve was calculated by using a Four Parameter Logistic Fit (GraphPadPrism9). […]

The target of assay [3] is T3, human PVRIG-mFc protein (Acro, PVG-H5253) (human, UniProt Q6DKI7 41-171, limits assumed).
T3 construct: bought reagent; also called PVRIG-ECD-mFc
T3 sequence (looked up): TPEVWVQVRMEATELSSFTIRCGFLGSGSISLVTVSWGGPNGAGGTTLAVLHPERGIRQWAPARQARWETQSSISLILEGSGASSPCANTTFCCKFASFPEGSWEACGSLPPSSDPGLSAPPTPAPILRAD
The assay is described as follows: competition FACS; blocked: human PVRIG-mFc binding to CHO-K1-CD112 cells. In short, it runs like this:
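Antibody dilutions premixed with human PVRIG-mFc (working solution 1 μg/mL, four-fold concentration) for 30 min at 4° C, then incubated with CHO-K1-CD112 cells 30 min at 4° C. Bound PVRIG-mFc detected by PE anti-mouse IgG Fc flow cytometry; IC50 and AUC from four-parameter fit of MFI versus antibody concentration.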

B1: TIGIT-002-H4L3 (antibody, V domains shown)
VH: EVQLQESGPGLVKPSETLSLTCAVSGYSITSDSWNWIRQPPGKKLEYIGYISYSGNTYYNPSLKSRVTISRDTSKNQFSLKLSSVTAADTAVYYCARLDFSNYGGAVDYWGQGTTVTVSS
VL: DIVMTQSPDSLAVSLGERATINCKASQNVRTAVAWYQQKPGQSPKLMIYSASYRYTGVPDRFSGSGSGTDFTLTISSLQAEDVAVYYCQQYYTTPWTFGGGTKVEIK
notes: Humanized anti-TIGIT antibody
As for B1, the “Fold change vs chimeric antibodies (KD)” value in assay [1] was 1.26 fold.

B2: PVRIG-A105 (VHH)
VHH: EVQLVESGGGLVQAGGSLRLSCAASGRTFDRHTMTWFRQAPGKEREFVATASRIPGDTYYSHSVKGRFTISRDNAKNTVYLQLNNLKPEDTAVYYCAATSAYCSEVDCYEKGSWYDNWGQGIQVTVSS
notes: tested as VHH-hinge-CH2-CH3 (human IgG1-Fc); not shown: human IgG1 hinge-CH2-CH3
As for B2, in assay [2], the “EC50 (read off the curve)” value is roughly 0.5 nM. Moreover, the “IC50 (read off the curve)” value in assay [3] was roughly 1 nM.

B3: SRF813-hIgG1 (antibody, V domains shown)
VH: QVQLVQSGAEVKKPGSSVKVSCKASGGTFSSAAISWVRQAPGQGLEWMGNIIPIVGIANYAQKFQGRVTITADESTSTAYMELSSLRSEDTAVYYCARDTGRGYTRHFWFDPWGQGTLVTVSS
VL: DIQMTQSPSSLSASVGDRVTITCRASQSISSYLNWYQQKPGKAPKLLIYAASSLQSGVPSRFSGSGSGTDFTLTISSLQPEDFATYYCQQSDILYTFGGGTKVEIK
notes: human IgG1 format by its name
For the molecule B3, the “EC50 (read off the curve)” value in assay [2] is roughly 1 nM. Further, the “IC50 (read off the curve)” value in assay [3] was roughly 1 nM.
